Literature values, collected in PMC3218054, “Characterisation of the Interaction of the C-Terminus of the Dopamine D2 Receptor with Neuronal Calcium Sensor-1” (PLoS ONE, 2011).
Entries after “also recorded” stand apart in the source; their conditions may differ.

System: NCS-1
Settings: D3 receptor
Text: Ultimately, it would be important to understand how NCS-1 interacts with the intact receptor. We, therefore, constructed a model of the NCS-1-D3 receptor complex using the AIR derived from the D2SR peptide-NCS-1 chemical mapping data, and taking into consideration that many of the hydrophobic residues at the C-terminus of D3 receptor are involved in intramolecular interactions with helix I of the receptor [45]. HADDOCK docking produ ... || Biophysical analysis of NCS-1 was consistent with the protein being monomeric in the presence or absence of Ca ^2+.

B1: D3 receptor: dopamine D3 receptor (PDB Accession 3PBL), docked onto NCS-1 (protein, UniProt P35462 1-400, looked up)
D(3) dopamine receptor: MASLSQLSGHLNYTCGAENSTGASQARPHAYYALSYCALILAIVFGNGLVCMAVLKERALQTTTNYLVVSLAVADLLVATLVMPWVVYLEVTGGVWNFSRICCDVFVTLDVMMCTASILNLCAISIDRYTAVVMPVHYQHGTGQSSCRRVALMITAVWVLAFAVSCPLLFGFNTTGDPTVCSISNPDFVIYSSVVSFYLPFGVTVLVYARIYVVLKQRRRKRILTRQNSQCNSVRPGFPQQTLSPDPAHLELKRYYSICQDTALGGPGFQERGGELKREEKTRNSLSPTIAPKLSLEVRKLSNGRLSTSLKLGPLQPRGVPLREKKATQMVAIVLGAFIVCWLPFFLTHVLNTHCQTCHVSPELYSATTWLGYVNSALNPVIYTTFNIEFRKAFLKILSC
ability to bind NCS-1: shown to bind to the dopamine D3 receptor and to regulate its internalisation; also recorded: can also bind to NCS-1
